Assays:
RNase [1] = test: Ct value depending on temperature of first heating step (Experimental Example 3); format: biochemical; conditions: RNase inhibitor 30 U/rxn, incubation 5 minutes
RNase [2] = test: Ct value depending on concentration of RNase inhibitor in first heating step (Experimental Example 2); format: biochemical; conditions: first heating 37° C. 5 minutes

B1: RNase inhibitor: RNase inhibitor (Nanohelix RNase Inhibitor) derived from murine lung (protein, UniProt Q91VI7 1-456, looked up)
Ribonuclease inhibitor: MSLDIQCEQLSDARWTELLPLIQQYEVVRLDDCGLTEVRCKDISSAVQANPALTELSLRTNELGDGGVGLVLQGLQNPTCKIQKLSLQNCGLTEAGCGILPGMLRSLSTLRELHLNDNPMGDAGLKLLCEGLQDPQCRLEKLQLEYCNLTATSCEPLASVLRVKADFKELVLSNNDLHEPGVRILCQGLKDSACQLESLKLENCGITAANCKDLCDVVASKASLQELDLSSNKLGNAGIAALCPGLLLPSCKLRTLWLWECDITAEGCKDLCRVLRAKQSLKELSLASNELKDEGARLLCESLLEPGCQLESLWIKTCSLTAASCPYFCSVLTKSRSLLELQMSSNPLGDEGVQELCKALSQPDTVLRELWLGDCDVTNSGCSSLANVLLANRSLRELDLSNNCMGGPGVLQLLESLKQPSCTLQQLVLYDIYWTNEVEEQLRALEEERPSLRIIS
Ct value at first heating temperature of 25° C. to 37° C. (RNase [1]): constant | Ct value at first heating temperature of 45° C. or higher (RNase [1]): increased | Ct value as the concentration of the RNase inhibitor increased (RNase [2]; 7.5 U/rxn to 45 U/rxn): gradually decreased | Ct value at 52.5 U/rxn (RNase [2]; 52.5 U/rxn): lower than that at a concentration of 7.5 U/rxn

— patent US20240344110A1, “COMPOSITION FOR CELL LYSIS AND NUCLEIC ACID EXTRACTION, NUCLEIC ACID EXTRACTION METHOD USING SAME, AND MOLECULAR DIAGNOSTIC METHOD USING SAME” (INVITROS CO., LTD., priority 2021, published 2024)
